This data set is described as follows: soluble on expression in E. coli; label from the status in PepcDB or PDB records.
As for “MTNVLIEDLKWRGLIYQQTDEQGIEDLLNKEQVTLYCGADPTADSLHIGHLLPFLTLRRFQEHGHRPIVLIGGGTGMIGDPSGKSEERVLQTEEQVDKNIEGISKQMHNIFEFGTDHGAVLVNNRDWLGQISLISFLRDYGKHVGVNYMLGKDSIQSRLEHGISYTEFTYTILQAIDFGHLNRELNCKIQVGGSDQWGNITSGIELMRRMYGQTDAYGLTIPLVTKSDGKKFGKSESGAVWLDAEKTSPYEFYQFWINQSDEDVIKFLKYFTFLGKEEIDRLEQSKNEAPHLREAQKTLAEEVTKFIHGEDALNDAIRISQALFSGDLKSLSAKELKDGFKDVPQVTLSNDTTNIVEVLIETGISPSKRQAREDVNNGAIYINGERQQDVNYALAPEDKIDGEFTIIRRGKKKYFMVNYQ”, the “soluble on expression in E. coli” value is recorded as “soluble”.

In the case of “MTNVQEQDKRKGGRPPTGRVRKLSKSVTVKFSKPSYEALKLRARKANRKLAEYIRESALNGEVVSGHNAETVAIAKNLIGMANNLNQLANLSHQRGFHETHVYVVDLLRRLKEILDEYRQASYKPKPSSMGRKEDTT”, the “soluble on expression in E. coli” value was “not soluble”. The result for “MTNYIYPKFGYLRSKEQAEGIVKRHPIVVIGAGPVGLTAALDCAARGQPVVLLDDNDTVSIGSRAVCYAKRPLEIWNRLDCADPMVERGVSWNVGKVFFRDELSYQFDLLPESDHEWPAMINLQQYHLEEILVARCRASPLIDLRWKHRLISLKQAADHAELAVETPDGIFTMEAQWVIACDGANSDTRKMVGAEFKGQYFEDRFLIADVAMKADFPTERWFWFDPPFHPAQSVLLHRQADDIWRIDFQLGWDADPDEEKRPERVIPRIKAMLGEDTEFELEWVSIYQFACRRIDKFRHGRVLFAGDAAHQVSPFGARGANTGVQDIDNLAWKLAMVLRGEAPEALLDSYHDERAYAADDNILNSTRATDFITPKTKVSRHFRDAVLELAQHHGFARPLVNSGRLSTPTPYVTSPLNTFDDSLLDGEMRPGTNAADAPVTIGGKPDWFLNCLGAGFVVVTFDQAVDNERIEVGPIAARVIRVGRDIDDPRGVLASRYGTSTGTTYLFRPDQYVAARWAGFDEGKISAALLRATAQDAVRQKEIAALEHHHHHH” reads “not soluble”; that for “MTNYKIDFSKGLVPAILQDNQTKQVLMLGYMNQEAFDKTIEDGVVCFYSRSKQRLWTKGETSGHTQRVKDIHVDCDNDTILIDVIPNGPTCHTGSQSCFNTEVPFSVQTLAQTVQDSAQSNNEKSYTKYLLTEGIEKITKKYGEEAFEVVIEAIKGDKKAFVSEVADELYHLFVLMHALGVDFSEIEAELARRHHKRNNFKGERQNIEQWLEHHHHHH”, “not soluble”; that for “MTPHATPAPRVSAIVSLYNAERFVRGCLDDLLGQTLADSLEIIVIDACSPQGEGAIVQDYMRDHPNIVYVRTDEREGVYASWNRGVRLARAPYVTNANADDRHREDALERLAAALDEAPEAGFAYGDCRVGQTENERYADNAGQRVMRFPDFFAPATLLYCQLGPQPLWRRSVHDVVGFFDESYRACADWDFDIRLAAAFRGIHVPDALGLYLEHEAAITFRDDTMTRENDRVQRQWQHPEAVEERYRAAGVPCHTAEERALVHFDMALRALRFYPPWCYGAPAHNPGFARRCLRHALRLAPALAPAKELLALPDAVLTALDDLPSPLGLPSQATLAGVAAPLEHHHHHH”, “not soluble”. The value for “MTPTIELICGHRSIRHFTDEPISEAQREAIINSARATSSSSFLQCSSIIRITDKALREELVTLTGGQKHVAQAAEFWVFCADFNRHLQICPDAQLGLAEQLLLGVVDTAMMAQNALIAAESLGLGGVYIGGLRNNIEAVTKLLKLPQHVLPLFGLCLGWPADNPDLKPRLPASILVHENSYQPLDKGALAQYDEQLAEYYLTRGSNNRRDTWSDHIRRTIIKESRPFILDYLHKQGWATR” was “soluble”; that for “MTQATTRICILGGGFGGLYTALRLSQLPWESTPKPEIILVDQSDRFLFSPFLYELLTGELQAWEIAPPYQELLQGTGVRFHQAVVSEIDTDKQQVQLQNGLEIAYDRLVLALGGETPLDLVPGATTYAHHFRSITEVYRLEESLRVLEASETEKIRIAIVGAGYSGVELACKLADRIGEKGRFRLIEISDQILRTSPEFNRQAAKKALETRGVFIDLETKVVSIGENTISLEYKTQVDEIPVDLVIWTVGTRVAPLVKTLPLKQNQRGQITTTSKLQVLEHPEIFALGDLADCLDTEGKQVPATAQVAFQQADYTAWNIWASLTNRPLLPFRYQQLGEMMALGVDNATLTGLGIKLDGSLAYIARRLAYLYRLPTLEHQLKVGFSWLVSPIIKTLSQ” was “not soluble”; that for “MTQHFPTRQLRFFLTAPTPCPYLPGREERKVFAHLPLSDGPIVNDSLTQVGFRRSQNIAYRPACETCRACQSARAPATEYILSRSERKILGRNDDLERHLVEAEATLEQFELLRRYLLTRHADGGMAEMTWPDYVAMVEDTAVRTHLIEYRRKSLDRGPGDLVACVLVDVLADGLSLVYSFYEPDQPRRSLGSFIILDHIVQAQQNALPYVYLGYWVPGSEKMAYKARFSPLEILKPGGWSLMSARERGARPPRGPGALKDACDLPLSDAQPADIEDLDLEHHHHHH” was “not soluble”.

With “MTQLNFEENLLTKVAWYYYKDQLTQQEIASLLHISRNKVVRLLDKARSEGIVTFHVKGTGLHCLSIERDLMKKFHLKDAFIIPTPVNNYHASLGKAAAQYLETHLQQGDLLGIGWGETISKMLENIHFESSINLSIVTLTGGVNHYLPRKQNYLHYMQGELHIIPTPFLASTTEMAQSILSEPSVKDMLQVASLAHTAVVGIGGLSQDATIVKEEKLTLREMTYIRSQNGAGDILGQFYNTNGDLLELSHHNRLIGTPLSILRNMKHVVGVAGGTEKIDAICGALKGKFIHSLITDEETALSLLRKDGDC”, the “soluble on expression in E. coli” value is on record as “not soluble”. The value for “MTQLNQRRRGNRLENAIYDTTYTLLSQYGLDQVTFSRVATAAATSRSVLYRYWDSTFDLIFHTIIHQIQKTPIALTTTPLDTGSLRTDLILLAQRFIQQTSTGPFRYFRLLFATALNAQNQRDLTQLVTQIDHANLTLIEPLLTNAQNHGELQIWPNQAAQLVLFQQLRYCDIINQPMNTDQQLTNLIDQVVLPALRASGVANRHFHH” was “not soluble”; that for “MTQSRRTLTERRADELRLAIAEVAFDMFVADGNTSATVERISQAVGIAPRTFYRHFEVKEDVVRPIFTKSSDVIVDALASTGEDVALLEGLVAAFLSQMDGTALTPEARTFLGLMLTTPAYKIRWLDVDPPLRQAVADLLDRRLGLSADPYIHLLAADLIVHAARDAFQHWVSSQEREPTEALLRRSFTLILKGLEHVIPRT” was “not soluble”.

For the sequence “MTRHGKNCTAGAVYTYHEKRKDTAASGYGTQSVRLGKDAIKDFDCCSLSLQPCRDPVLTEDGYLYEKEAILQYILHQKTEIAKKMKAYEKQKQALKSEGQLESKSEERERAEKFKQRENNIVSKPINPFTSGKSKDEGNQNGSTSSSSTDTSSGESSSSSALPSFWIPSLTPEAKPTLLKKPSKTVSCPMSGRPLKMSDLITVRFTPLDPSLDRVALLTRQDRYVCAVTKDTLGNSVPCAVLRPSGVVVTMECVEKLIKKDMVDPITGDKLKEKDIIPIQRGGTGFAGSGVDLKAKEARPVMQA”, the “soluble on expression in E. coli” value is given as “not soluble”. The value for “MTRVIIDGDACPVVDSVIELTTGTGIFVTILRSFSHYSNKVLPNHVETIYIDDGPDAVDYKIVKLATPEDIVITQDYGLASLLLSKVKIVMHHKGHLYRSSNIDMLLQQRYNNAQIRKQGGRHKGPPPFSKEDKKQFERAFKSVIKQLLEHHHHHH” was “not soluble”. With “MTRYALLVRGINVGGKNKVVMAELRQELTNLGLEKVESYINSGNIFFTSIDSKAQLVEKLETFFAVHYPFIQSFSLLSLEDFEAELENLPAWWSRDLARKDFLFYTEGLDVDQVIATVESLELKDEVLYFGKLGIF”, the “soluble on expression in E. coli” value is “not soluble”. As to “MTSASAPSFNPGKGPGSAVGIALLGFGTVGTEVMRLMTEYGDELAHRIGGPLEVRGIAVSDISKPREGVAPELLTEDAFALIEREDVDIVVEVIGGIEYPREVVLAALKAGKSVVTANKALVAAHSAELADAAEAANVDLYFEAAVAGAIPVVGPLRRSLAGDQIQSVMGIVNGTTNFILDAMDSTGADYADSLAEATRLGYAEADPTADVEGHDAASKAAILASIAFHTRVTADDVYCEGISNISAADIEAAQQAGHTIKLLAICEKFTNKEGKSAISARVHPTLLPVSHPLASVNKSFNAIFVEAEAAGRLMFYGNGAGGAPTASAVLGDVVGAARNKVHGGRAPGESTYANLPIADFGETTTRYHLDMDVEDRVGVLAELASLFSEQGISLRTIRQEERDDDARLIVVTHSALESDLSRTVELLKAKPVVKAINSVIRLERD”, the “soluble on expression in E. coli” value was “not soluble”.

(Values after the DeepSol protein solubility set.)
